Consider three molecules from patent US20200062863A1 (CSL BEHRING, published 2020).

Where “and” joins values, the source holds several entries; their conditions need not be identical. Equal entries are not always repeated. Where two headings read alike, the source gives them in different places.

The target in assay [1] is T1, human Factor XII (human, UniProt P00748 20-615).
T1 construct: Zymogen bought from Enzyme Research Laboratories; also called FXII
T1 sequence: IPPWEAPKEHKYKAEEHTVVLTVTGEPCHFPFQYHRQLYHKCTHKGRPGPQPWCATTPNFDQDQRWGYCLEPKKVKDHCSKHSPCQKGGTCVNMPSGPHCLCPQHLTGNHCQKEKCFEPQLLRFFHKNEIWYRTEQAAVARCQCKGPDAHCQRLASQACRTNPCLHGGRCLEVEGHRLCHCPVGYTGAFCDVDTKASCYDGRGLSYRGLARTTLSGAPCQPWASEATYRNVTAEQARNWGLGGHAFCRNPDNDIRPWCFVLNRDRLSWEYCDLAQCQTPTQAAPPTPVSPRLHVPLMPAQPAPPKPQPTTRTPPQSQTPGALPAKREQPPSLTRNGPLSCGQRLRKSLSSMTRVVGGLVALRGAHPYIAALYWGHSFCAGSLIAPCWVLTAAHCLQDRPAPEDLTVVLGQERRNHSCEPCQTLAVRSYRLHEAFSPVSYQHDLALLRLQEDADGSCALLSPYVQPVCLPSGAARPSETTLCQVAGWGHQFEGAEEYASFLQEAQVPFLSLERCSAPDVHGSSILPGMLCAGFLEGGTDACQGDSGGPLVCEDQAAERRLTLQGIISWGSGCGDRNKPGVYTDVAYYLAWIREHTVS
In words: SPR (Biacore), purified IgG captured on anti-mouse Fc antibody, FXII 0-500 nM, 1:1 fit, 25 C.

Assay [2] deals with T2, human FXIIa (human, UniProt P00748 20-615, limits assumed).
T2 sequence: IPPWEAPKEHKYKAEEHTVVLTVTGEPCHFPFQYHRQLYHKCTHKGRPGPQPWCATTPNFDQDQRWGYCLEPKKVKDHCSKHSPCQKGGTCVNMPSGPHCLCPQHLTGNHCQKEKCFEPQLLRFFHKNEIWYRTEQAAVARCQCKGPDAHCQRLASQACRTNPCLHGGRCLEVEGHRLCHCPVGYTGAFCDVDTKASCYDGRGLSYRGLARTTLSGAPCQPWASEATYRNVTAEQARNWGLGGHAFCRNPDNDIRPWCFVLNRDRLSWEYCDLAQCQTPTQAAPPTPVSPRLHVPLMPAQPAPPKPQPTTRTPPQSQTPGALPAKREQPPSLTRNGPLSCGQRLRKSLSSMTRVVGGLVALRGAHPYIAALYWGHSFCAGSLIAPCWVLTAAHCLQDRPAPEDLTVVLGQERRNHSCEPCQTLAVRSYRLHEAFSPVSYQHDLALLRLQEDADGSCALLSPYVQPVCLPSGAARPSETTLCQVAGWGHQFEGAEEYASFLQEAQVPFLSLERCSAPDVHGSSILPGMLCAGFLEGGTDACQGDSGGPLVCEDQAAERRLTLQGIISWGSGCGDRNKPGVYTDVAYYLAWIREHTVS

Assay [3] addresses T3, human Factor XIIa-beta (human, UniProt P00748 354-615, limits assumed).
T3 construct: Bought from Enzyme Research Laboratories; also called FXIIa beta; FXIIa-beta
T3 sequence: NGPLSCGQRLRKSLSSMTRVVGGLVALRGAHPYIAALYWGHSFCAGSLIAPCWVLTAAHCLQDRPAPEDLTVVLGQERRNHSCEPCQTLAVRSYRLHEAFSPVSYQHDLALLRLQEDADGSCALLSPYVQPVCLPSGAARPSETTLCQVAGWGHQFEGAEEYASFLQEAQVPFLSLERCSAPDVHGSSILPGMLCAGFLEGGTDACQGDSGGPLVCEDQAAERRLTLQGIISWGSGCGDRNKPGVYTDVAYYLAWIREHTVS
In words: SPR (Biacore), purified IgG captured on anti-mouse Fc antibody, FXIIa beta 0-40 nM, 1:1 fit, 25 C. In general terms: SPR reads the build-up and loss of mass on a sensor chip optically.

Assay [4] deals with T4, human Factor XIIa-alpha (human, UniProt P00748 20-615).
T4 sequence: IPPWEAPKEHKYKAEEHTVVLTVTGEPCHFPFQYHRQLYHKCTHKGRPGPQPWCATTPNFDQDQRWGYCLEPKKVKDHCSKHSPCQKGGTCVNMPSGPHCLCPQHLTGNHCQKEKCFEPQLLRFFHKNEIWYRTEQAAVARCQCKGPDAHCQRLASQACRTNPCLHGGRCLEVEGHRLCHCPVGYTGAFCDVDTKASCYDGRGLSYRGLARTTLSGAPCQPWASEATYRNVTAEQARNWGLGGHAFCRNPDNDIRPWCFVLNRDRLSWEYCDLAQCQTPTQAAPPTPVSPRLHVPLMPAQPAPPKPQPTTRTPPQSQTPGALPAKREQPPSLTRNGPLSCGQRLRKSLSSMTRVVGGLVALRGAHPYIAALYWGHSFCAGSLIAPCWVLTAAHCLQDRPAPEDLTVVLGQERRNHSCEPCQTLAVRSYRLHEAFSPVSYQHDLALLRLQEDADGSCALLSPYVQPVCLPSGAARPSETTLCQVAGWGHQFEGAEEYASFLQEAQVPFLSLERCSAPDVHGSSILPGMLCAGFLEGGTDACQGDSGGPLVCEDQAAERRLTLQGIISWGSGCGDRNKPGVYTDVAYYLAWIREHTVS
In words: cell-based or functional assay.

Assay [5] addresses T2, human FXIIa. In words: competition phage ELISA on plate-coated FXIIa; competed binder: 3F7 Fab-phage at a fixed amount. (In general: ELISA stands for enzyme-linked immunosorbent assay.)
Assay [6] addresses T2, human FXIIa. In words: competition phage ELISA on plate-coated FXIIa; competed binder: 3H4 Fab-phage at a fixed amount.
The target of assay [7] is T2, human FXIIa. The assay can be described thus: competition phage ELISA on plate-coated FXIIa; competed binder: Inf4-phage (pTacInf4) at a fixed amount.
Assay [8] deals with T2, human FXIIa. This is another data set of the same source.
Assay [9] addresses T3, human Factor XIIa-beta. The assay can be described thus: SPR (Biacore), purified IgG4 captured on anti-human IgG, FXIIa beta 0-40 nM, 1:1 fit, 25 C.
In assay [10] the target is T3, human Factor XIIa-beta. The assay can be described thus: SPR (Biacore A100), unpurified IgG4 supernatant captured on anti-human IgG, single FXIIa beta concentration (100 nM), 37 C, 1:1 fit; estimated. Here is the method:
Anti-human (Goat anti-human IgG (gamma) mouse adsorbed, Invitrogen, Cat No. H10500) was chemically immobilised on a CM-5 sensor surface using amine coupling chemistry. Culture supernatants were diluted 1/60 with running buffer before capture. Antibodies were captured for 180 seconds representing an average capture of 800 response units (RU). FXIIa beta was then injected at zero and 100 nM for 180 seconds, and dissociated for 180 seconds. All assays were conducted on a Biacore A100 instrument at 37 degrees Celsius and the data fitted to a 1:1 kinetic model.

Assay [11] addresses T3, human Factor XIIa-beta. The assay can be described thus: SPR (Biacore), KD against parental 3F7.

With Anti-human FXII antibody (OT-2), the Kd (in general, the concentration at which binding is half-saturated) in assay [1] is 0.69 nM. Also, the m3 (parameter of the curve fit, printed in the legend box; x axis Ab in nM) of the inhibition of FXIIa amidolytic activity, OD405 in assay [2] was 12.9 and 13.5. In assay [3], this molecule showed a Kd of 0.76 nM. Further, in assay [4], the % Inhibition, ratio FXIIa-alpha:Antibody 1:0.1 is 21.6%; the % Inhibition, ratio FXIIa-alpha:Antibody 1:0.2 is 37.7%; the % Inhibition, ratio FXIIa-alpha:Antibody 1:0.5 is 76.6%; the % Inhibition, ratio FXIIa-alpha:Antibody 1:1 was 92.7%. In [4], the % Inhibition, ratio FXIIa-alpha:Antibody 1:2 worked out at 96.9%; the % Inhibition, ratio FXIIa-alpha:Antibody 1:5 came to 100%; the % Inhibition, ratio FXIIa-alpha:Antibody 1:10 came to 100%.
As to “rHA-Infestin-4 (recombinant Infestin-4 fused to human albumin)”, the IC50 (read off the curve) in assay [5] was found to be 5 nM; in [6] it was 5 nM; in assay [7], 3 nM; in assay [8], 9 nM. In addition, the % Inhibition, ratio FXIIa-alpha:inhibitor 1:1 in [4] turned out to be 90%.

B1: VR24 (antibody, V domains shown)
VH: EVQLLESGGGLVQPGGSLRLSCAASGFTFSKYIMQWVRQAPGKGLEWVSGIRPSGGTTVYADSVKGRFTISRDNSKNTLYLQMNSLRAEDTAVYYCARALPRSGYLISPHYYYYALDVWGQGTTVTVSS
VL: QSVLTQPPSASGTPGQRVTISCSGSSEMTVHHYVYWYQQLPGTAPKLLIYSNNQRPSGVPDRFSGSKSGTSASLAISGLRSEDEADYYCAAWDASLRGVFGGGTKLTVLG
Take B1: in assay [9], the affinity, expressed as Kd, was 0.26 nM; the off-rate (koff) (commonly a measure of how fast the partners let go of each other) was found to be 6.4e-05 s⁻¹; the kon (in general, a measure of how fast the partners come together) is 240000 M⁻¹ s⁻¹. For the same molecule, the dissociation constant Kd in assay [10] was 1.63 nM. Besides, the Fold affinity improvement in assay [11] amounted to 33 fold. In assay [4], the “% Inhibition, ratio FXIIa-alpha:Antibody 1:0.1” value was determined as 34.5%; the “% Inhibition, ratio FXIIa-alpha:Antibody 1:0.2” value was 67.3%; the “% Inhibition, ratio FXIIa-alpha:Antibody 1:0.5” value stood at 99.7%; the “% Inhibition, ratio FXIIa-alpha:Antibody 1:1” value came out at 100%. For the same molecule, in [4], the “% Inhibition, ratio FXIIa-alpha:Antibody 1:2” value is 100%; the “% Inhibition, ratio FXIIa-alpha:Antibody 1:5” value turned out to be 100%; the “% Inhibition, ratio FXIIa-alpha:Antibody 1:10” value is 100%.
